The supplement of paper PMC10126150
± gives the standard deviation of the averaged measurements.

System: ATP
Experiment: switch fluorescence ratio, 500 uM ATP over buffer (Cy3 cluster intensity, sum of 5 cycles each) (fold (ratio)); higher = stronger signal-on switching upon ATP binding; sequences stand for … in TCGTCGGCAGCGTCAGATGTGTATAAGAGACAGTTTTTTTTTTTTTTTTTTTTTTTTT…TC
Settings: aptamer strand: ATP DNA aptamer (quencher-CACCTGGGGGAGTATTGCGGAGGAAGG + anchor), 100 nM annealed; ATP concentration: 500 uM
Summary of the method: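 Values give the fluorescence ratio for each switch-domain sequence, averaged from per-cluster ratios of summed target-cycle to summed buffer-cycle Cy3 intensity. The Cy3-labelled switching-strand clusters sat on a modified Illumina MiSeq flow-cell, were annealed to 100 nM quencher-labelled ATP aptamer, and were imaged in selection buffer, then after 15 min with 500 uM ATP at 22 °C. Five cycles ran with NaOH stripping and re-annealing between them, and clusters outside 100-1000 RFU were excluded.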
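Also: ATP exposure 15 min at 22 °C before imaging.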

Sequence	switch fluorescence ratio
GATGAGATTT	0.972 ± 0.046
GATGAGTGGT	0.979 ± 0.02
GATGAGTTAG	0.973 ± 0.017
GATGAGTTGA	0.988 ± 0.02
GATGATATTG	0.992 ± 0.012
GATGATCGGG	1.02 ± 0.013
GATGATGGAG	1.02 ± 0.011
GATGATTATC	0.986 ± 0.022
GATGATTCGG	0.984 ± 0.037
GATGCACTCC	1.911 ± 0.0078
GATGCAGCGA	1.107 ± 0.011
GATGCAGGCC	0.892 ± 0.017
GATGCCGGGA	1.02 ± 0.038
GATGCGAGGT	0.952 ± 0.02
GATGCTCGAA	0.989 ± 0.025
GATGCTTTTT	1.02 ± 0.018
GATGGAAACT	1.008 ± 0.0072
GATGGAAGTT	1 ± 0.018
GATGGACATA	1.031 ± 0.0015
GATGGCCGCG	1.03 ± 0.024
GATGGGATGC	1.07 ± 0.071
GATGGGCACC	1.01 ± 0.012
GATGGGCGGT	0.9773 ± 0.0094
GATGGGGGAA	0.986 ± 0.049
GATGGGGGTC	1.21 ± 0.34

Sequence	switch fluorescence ratio
GATGGGTATT	0.968 ± 0.015
GATGGGTCTA	0.966 ± 0.029
GATGGTAAAC	1.05 ± 0.056
GATGGTAGCC	0.9862 ± 0.0098
GATGGTGTGA	0.978 ± 0.014
GATGGTTGCG	1.02 ± 0.022
GATGGTTGGA	0.9825 ± 0.0056
GATGGTTTTT	1 ± 0.016
GATGTACCGC	1.12 ± 0.042
GATGTAGATA	0.9778 ± 0.0032
GATGTAGGGG	0.999 ± 0.024
GATGTAGGTT	0.98 ± 0.029
GATGTAGTTT	0.993 ± 0.027
GATGTCACGA	1.03 ± 0.028
GATGTCAGGC	0.996 ± 0.01
GATGTCTATC	1.01 ± 0.011
GATGTGCGTG	0.9956 ± 0.0091
GATGTGGCTT	0.961 ± 0.015
GATGTGGTGC	1.016 ± 0.0038
GATGTGTCTG	0.999 ± 0.026
GATGTTATTA	0.979 ± 0.038
GATGTTTCAT	0.979 ± 0.018
GATGTTTTTC	0.97003 ± 0.00087
GATTAAAAAG	0.99 ± 0.062
GATTAAAAT	1.01 ± 0.013

Sequence	switch fluorescence ratio
GATTAAATAT	1.02 ± 0.012
GATTAAATTA	1.01 ± 0.021
GATTAAATTT	1.01 ± 0.033
GATTAATGGG	0.995 ± 0.023
GATTACCAAG	1.03 ± 0.025
GATTACGGCC	1.06 ± 0.035
GATTAGGTGT	1.098 ± 0.0067
GATTAGGTTG	0.968 ± 0.072
GATTATAATC	1.01 ± 0.015
GATTATATAT	0.986 ± 0.015
GATTATTTAG	0.997 ± 0.019
GATTCATCTA	0.983 ± 0.029
GATTCATGTT	0.998 ± 0.013
GATTCATTAG	0.9925 ± 0.0015
GATTCCAAAA	0.975 ± 0.011
GATTCGGGGA	0.999 ± 0.014
GATTCGTTTT	1 ± 0.031
GATTCTTAAG	1 ± 0.022
GATTCTTGTC	1.01 ± 0.035
GATTGAACGG	0.997 ± 0.0086
GATTGAGAGC	0.9928 ± 0.005
GATTGATGGG	0.995 ± 0.024
GATTGCATGA	0.996 ± 0.024
GATTGCCAGG	1.05 ± 0.035
GATTGCGAGG	0.9887 ± 0.0059

Sequence	switch fluorescence ratio
GATTGCGCAT	1 ± 0.03
GATTGCTTGA	0.999 ± 0.034
GATTGGAGCG	1.008 ± 0.0031
GATTGGATGA	0.992 ± 0.045
GATTGGGCTG	0.984 ± 0.056
GATTGGGGTG	1 ± 0.035
GATTGGGGTT	0.978 ± 0.036
GATTGGGTCC	1 ± 0.02
GATTGGGTTT	0.999 ± 0.019
GATTGGTGCG	0.976 ± 0.015
GATTGGTTGC	0.9941 ± 0.0019
GATTGTACTC	1.022 ± 0.01
GATTGTAGCT	0.987 ± 0.023
GATTGTGGGG	0.969 ± 0.015
GATTGTTCTG	0.9804 ± 0.0049
GATTTAAATA	0.98 ± 0.018
GATTTACATA	1.01 ± 0.019
GATTTACATT	1.019 ± 0.0024
GATTTAGACT	1.04 ± 0.071
GATTTATAGG	0.972 ± 0.052
GATTTATGG	0.994 ± 0.058
GATTTCACTC	1 ± 0.026
GATTTCATCA	0.967 ± 0.057
GATTTCATGG	0.9784 ± 0.0044
GATTTGTGTC	0.955 ± 0.081

Sequence	switch fluorescence ratio
GATTTTCCGT	1.009 ± 0.009
GATTTTGCGA	0.983 ± 0.033
GATTTTTACG	1 ± 0.033
GCAAAAATCT	1.01 ± 0.046
GCAAAACA	1.3 ± 0.41
GCAAAAGGGA	1.01 ± 0.013
GCAAAAGTTT	0.99 ± 0.012
GCAAAGTGGA	0.9773 ± 0.0047
GCAAATAGTT	0.993 ± 0.024
GCAAATGAGT	1.003 ± 0.0082
GCAAATGTGT	0.969 ± 0.026
GCAACAGCAA	1.04 ± 0.015
GCAACCCTAA	1.02 ± 0.055
GCAACCGGTC	1.054 ± 0.0041
GCAACCTGAG	1.56 ± 0.14
GCAACTTATT	0.983 ± 0.022
GCAAGAGATG	1.01 ± 0.027
GCAAGAGTGA	1.04 ± 0.038
GCAAGATGGG	0.983 ± 0.015
GCAAGATTTA	1.01 ± 0.019
GCAAGCTGCA	1.016 ± 0.0087
GCAAGGGCTA	1.04 ± 0.045
GCAAGGGGGT	1.05 ± 0.053
GCAAGGGTGT	1.153 ± 0.0013
GCAAGGGTTG	1.01 ± 0.022

Sequence	switch fluorescence ratio
GCAAGTCATG	1.03 ± 0.04
GCAAGTTGGT	1 ± 0.017
GCAATGGGAA	1.1 ± 0.019
GCAATTAAAT	0.996 ± 0.036
GCAATTCCGG	1.21 ± 0.035
GCAATTTCGC	1.42 ± 0.58
GCAATTTTGT	1.03 ± 0.015
GCACAAGATG	1.0073 ± 0.00098
GCACATTTGC	0.95 ± 0.079
GCACCGAAAA	1.29 ± 0.4
GCACCGGCTA	1.16 ± 0.23
GCACGGCGTA	1.04 ± 0.038
GCACGGGGCT	1.04 ± 0.018
GCACGGGGGT	1.05 ± 0.045
GCACGTGCAG	0.9955 ± 0.0041
GCACTCAGGA	1.03 ± 0.04
GCACTCCAGG	2.61 ± 0.22
GCACTCTGAG	0.993 ± 0.029
GCACTGAAGG	1.0196 ± 0.00041
GCAGAATTTG	1.02 ± 0.031
GCAGAGGGCA	1.01 ± 0.049
GCAGAGGTGG	1.05 ± 0.037
GCAGCACGCG	1.03 ± 0.031
GCAGCCATAA	2.27 ± 0.16
GCAGCCGGGT	0.991 ± 0.022

Sequence	switch fluorescence ratio
GCAGCGGGGA	1.04 ± 0.017
GCAGCTGGCG	1.04 ± 0.017
GCAGCTGGGT	1.064 ± 0.0034
GCAGCTTGCA	0.993 ± 0.018
GCAGGAAATG	0.992 ± 0.011
GCAGGAAATT	0.973 ± 0.014
GCAGGAGGAA	0.991 ± 0.02
GCAGGAGTTG	0.978 ± 0.087
GCAGGGAGCG	0.978 ± 0.027
GCAGGGATCA	0.9813 ± 0.0013
GCAGGGATGG	0.985 ± 0.035
GCAGGGGATT	1.01 ± 0.033
GCAGGGGGGA	1.04 ± 0.05
GCAGGGGGGT	1.01 ± 0.034
GCAGGGGTTT	1.25 ± 0.48
GCAGGGTAAA	0.986 ± 0.02
GCAGGGTCTG	1.02 ± 0.083
GCAGGGTTTC	0.997 ± 0.024
GCAGGTACGC	1.05 ± 0.033
GCAGGTTGT	1.009 ± 0.0021
GCAGTAATTT	1.49 ± 0.62
GCAGTATAAT	0.9932 ± 0.0099
GCAGTATGCT	1.01 ± 0.062
GCAGTATTTG	0.99057 ± 2.4e-05
GCAGTCCGTC	1.06 ± 0.019

Sequence	switch fluorescence ratio
GCAGTGGGTA	0.978 ± 0.016
GCAGTTAATC	1.05 ± 0.026
GCAGTTGTGT	0.9941 ± 0.0058
GCAGTTGTTC	0.981 ± 0.037
GCAGTTTGGC	1.01 ± 0.057
GCAGTTTTTG	0.9746 ± 0.0056
GCATAATTTA	0.9898 ± 0.0096
GCATAGGGGG	1.03 ± 0.081
GCATATAAAC	1.2 ± 0.17
GCATATGGCT	1 ± 0.031
GCATATGTCG	1.097 ± 0.0042
GCATCACGTA	1.17 ± 0.024
GCATCAGGCG	1.01 ± 0.02
GCATCGGGGG	0.981 ± 0.037
GCATCTAGAT	0.986 ± 0.018
GCATGAAACT	1.03 ± 0.034
GCATGCGGTC	1.01 ± 0.027
GCATGGAAAT	0.985 ± 0.045
GCATGGTAGC	0.994 ± 0.037
GCATGTAGTG	0.9794 ± 0.005
GCATGTATAG	1.015 ± 0.0046
GCATGTCGAT	1.02 ± 0.023
GCATGTCTGC	0.9862 ± 0.0093
GCATTAGTTT	1.04 ± 0.012
GCATTATGTT	0.987 ± 0.044
